According to PMC3893830, “Manipulating Conserved Heme Cavity Residues of Chlorite Dismutase: Effect on Structure, Redox Chemistry, and Reactivity” (Biochemistry, 2013):

Substrate: [O-][Cl+]O
Assay: O2 release, Clark-type oxygen electrode
Assay type: biochemical, Nitrospira defluvii
Conditions: 50 mM phosphate pH 7.0, 30 °C, O2-free buffer, low heme occupancy
Description: O2 release, Clark-type oxygen electrode on NdCld

B1: NdCld (Nitrospira defluvii; E236A/R199Q) (protein)
chain: ADREKLLTESGVYGTFATFQMDHDWWDLPGESRVISVAEVKGLVEQWSGKILVESYLLRGLSDHADLMFRVHARTLSDTQQFLSAFMGTRLGRHLTSGGLLHGVSKKPTYVAGFPESMKTELQVNGESGSRPYAIVIPIKKDAEWWALDQEARTALMQEHTQAALPYLKTVKQKLYHSTGLDDVDFITYFETERLEDFHNLVRALQQVKAFRHNRRFGHPTLLGTMSPLDEILEKFAQ
notes: N-terminal TEV-cleavable Strep-II tag, N-terminal signal peptide removed; expressed in E. coli Tuner (DE3), StrepTrap purified; homopentamer with heme b
How did the Km turn out when B1 was run?
The Km was 184 ± 36 µM.

What about the kcat of the same protein?
Its kcat is 0.9 s⁻¹.

And the kcat/Km?
The kcat/Km was 4600 M⁻¹ s⁻¹.
